Target: PHF-tau (paired helical filament tau; sarcosyl insoluble prep from human AD brain) (human) (UniProt P10636)
Assay: SPR (ProteOn), mAb on PHF-tau, bivalent analyte fit; apparent affinity (avidity)

PHF-tau (paired helical filament tau; sarcosyl insoluble prep from human AD brain) (human), sequence (P10636 other isoform, or with tags, fused parts or gaps limits assumed): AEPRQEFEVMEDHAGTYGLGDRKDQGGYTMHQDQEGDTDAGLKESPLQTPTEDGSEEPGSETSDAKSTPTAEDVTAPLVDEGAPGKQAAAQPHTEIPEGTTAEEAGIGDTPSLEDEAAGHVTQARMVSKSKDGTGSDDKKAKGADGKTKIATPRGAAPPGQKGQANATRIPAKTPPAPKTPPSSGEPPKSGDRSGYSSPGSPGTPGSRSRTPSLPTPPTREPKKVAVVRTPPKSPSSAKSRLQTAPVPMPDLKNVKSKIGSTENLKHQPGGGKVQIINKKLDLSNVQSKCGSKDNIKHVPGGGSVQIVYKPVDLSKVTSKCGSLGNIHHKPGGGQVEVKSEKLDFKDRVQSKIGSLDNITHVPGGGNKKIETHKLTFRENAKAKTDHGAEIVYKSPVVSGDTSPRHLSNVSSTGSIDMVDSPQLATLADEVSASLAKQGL

Q: HT7 (reference mAb) (antibody) was tested. Which Kd did it give?
A: 0.291 nM

Reference: patent US20240150451A1
